Tested on: MS2 coat protein
Experiment: apparent KD of MS2 coat protein; designed switch direction (-1 OFF switch, 1 ON switch): -1; higher = weaker reporter binding
Summary of the method: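 RNA switches sharing common flanks were transcribed by stalled E. coli RNA polymerase on Illumina chips. A doubling series of SNAP-549-labelled MS2 coat protein, from 0.7 or 1.5 nM to 3 µM, was applied in Tris-HCl pH 7.5 buffer with KCl, MgCl2, BSA, DTT, tRNA and Tween-20. Each step lasted 0.8–1.5 h at the bottom of the series and 10–20 min at the top. Normalised cluster fluorescence was curve-fitted, giving apparent KD as the per-design median over clusters.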

[1] = input ligand: microRNA oligo, concentration not stated
[2] = Eterna round: R95, input ligand: microRNA oligo, concentration not stated
[3] = Eterna round: R95, input ligand: FMN 200 uM
[4] = Eterna round: R95, input ligand: none

| Sequence | apparent KD of MS2 coat protein (input ligand: FMN 200 uM) [µM] | apparent KD of MS2 coat protein [1] [µM] | apparent KD of MS2 coat protein (input ligand: none) [µM] | apparent KD of MS2 coat protein [2] [µM] | apparent KD of MS2 coat protein [3] [µM] | apparent KD of MS2 coat protein [4] [µM] |
| --- | --- | --- | --- | --- | --- | --- |
| UGAGUGCUGCGAGGAUAUACAUGAGGAUCACCCAUGUGGAUGUCUGAGGCUUUGCCUCAGACGAUGUAGAAGGCGCAGUACUCU [JL ENG2 1.20] (Eterna round: R96, puzzle: Exclusion NG 2) | 0.1 | 0.0152 | 0.0221 | – | – | – |
| GCUGUGAAUCAGGAUAUGCGGAUAAAGAGUGCCGCAGAAGGGAUAACAUGAGGAUCACCCAUGUUCCUGCAUGA [Eternabot (L2) Solution 99] (Eterna round: R97, puzzle: Exclusion 6) | 0.0265 | – | 0.0209 | – | – | – |
| AAAAAGUCAGGAUAUGCGAAGGCGUCUGAUAGACGAGGCUAGCAGAAGGGACAUGAGGAUCACCCAUGUAAAGA [Mat - Exclusion 4 - D82] (Eterna round: R96, puzzle: Exclusion 4) | – | 0.0194 | – | – | – | – |
| CUUUUGUGAGGAUAUCAGUAGUAGAACAAUAGUACUACUACUGAGAAGGCACAUGAGGAUCACCCAUGUUUCUC [Fiskers Ex 4 Super stable 44 mod 4] (puzzle: Exclusion 4) | – | – | – | 0.0587 | – | – |
| CGUUGCAGAGGAUAUACAUGAGGAUCACCCAUGUGAAAUUAUAGUGAGGAAAUGAAAAGUAGAAGGCUGUGACA [Mod of Mat 11 - Jieux - Exclusion 3] (Eterna round: R97, puzzle: Exclusion 3) | 0.267 | – | 0.0473 | – | – | – |
| UCAUGUAUGUAGGAUAUCGAUGUCGAAAGACAUCGAGAAGGACGUACAUGAGGAUCACCCAUGUAACUUGCAUG [Exclusion 6 - B - 11:a] (puzzle: Exclusion 6) | – | – | – | 0.0188 | 0.0129 | 0.0129 |
| AGCUAGUGCCGAGGAUAUACAUGAGGAUCACCCAUGUAAGGCAGUCGGUUUCUGACUGCCAAUAUGUAGAAGGCGGCGUUGGCA [JL ENG2 1.48] (Eterna round: R96, puzzle: Exclusion NG 2) | 0.0454 | 0.0158 | 0.0157 | – | – | – |
| CCAGCGUAUGUGAGGAUAUGCUGGUCCUUGGAUCAGCAGAAGGCACAUGAGGAUCACCCAUGUGAGAACGUUGG [JL bmx4 3.38] (puzzle: Brourd's mod of Exclusion 4) | – | – | – | 0.0246 | – | – |
| CUUGUUUAUGUAGGAUAUGCCUGGCGUGCCUUUGCAGAAGGACAUGAGGAUCACCCAUGUACAUGAGGAUCACCCAUGUUCGCA [salish99_ExNG1_r04_102] (Eterna round: R96, puzzle: Exclusion NG 1) | 0.836 | 0.455 | 0.825 | – | – | – |
| CGUCUGUGAGGAUAUGGUAUCGUUUACAUGAGGAUCACCCAUGUUACAUGGGACUAGAGACUAGAAGGUACUGACG [EX5 #47] (Eterna round: R97, puzzle: Exclusion 5) | 0.628 | – | 0.878 | – | – | – |
| AGAGUGCUGCGAGGAUAUACAUGAGGAUCACCCAUGUUUUCCUGUGAGGCUUUGCCUCACAGGAUGUAGAAGGCGCAGUACUCA [Mat - Exclusion NG 2 - Mod of JL - D38] (Eterna round: R96, puzzle: Exclusion NG 2) | 0.00932 | 0.00965 | 0.0131 | – | – | – |
| AAAAGGCAGGGAGGAUAUGCUUGCCUGGGUCGUCUUCAAACAUGAGGAUCACCCAUGUAGUCGACGCAGAAGGCCCUCAAAGCC [Mat - Exclusion NG 2 - Mod of JL - D61] (Eterna round: R96, puzzle: Exclusion NG 2) | 0.0652 | 0.0121 | 0.0165 | – | – | – |
| UUAAUACAUGUAGGAUAUGCGUGGCGAAGCUAUGCAGAAGGACAUGAGGAUCACCCAUGUCUAUGCGUCCGCGUACGGAUGCAA [JL Eng1 1.21 mod 6] (Eterna round: R96, puzzle: Exclusion NG 1) | 0.0184 | 0.00906 | 0.0164 | – | – | – |
| AGUACUAACACGCAAGUGUUAGUACAAUAAGCUUGUGAAACAUGAGGAUCACCCAUGUCCUCAUAAGCUCGUCUUAU [salish99_TOv2_r3_027] (puzzle: Sensor v3, turn-off variant 2) | – | – | – | 0.49 | 0.0162 | 0.0165 |
| GAUCAGUCAGGAUAUCAAUCCGCCUGUGAUACGCAGGCGGCUGAGAAGGGACAUGAGGAUCACCCAUGUAAAGA [jl-ex4-4.22 ViennaUCT mod] (Eterna round: R97, puzzle: Exclusion 4) | 0.191 | – | 0.0804 | – | – | – |
| UUUUUCUGUGUGAGGAUAUACUUUGUUUGGUCGUUGUAGAAGGCACAUGAGGAUCACCCAUGUAGUUUGUUGUG [JR_BME4_Sub013] (puzzle: Brourd's mod of Exclusion 4) | – | – | – | 0.023 | – | – |
| GAGAAAUUAUAGGAUAUCGAAAGUAUAAUUUAACGAGAAGGAUGAACAUGAGGAUCACCCAUGUGGUAUCAUGG [JL-ex6-3.10] (puzzle: Exclusion 6) | – | – | – | 0.0882 | 0.283 | 0.297 |
| ACGCAUUGCCUUUGGUAGUGCGUAACAUGAGGAUCACCCAUGUAGGAUAUGGUAGGCUUUGCUUACCAGAAGGACAUAAUAAUU [JL ENG3 1.01] (Eterna round: R96, puzzle: Exclusion NG 3) | 0.0541 | 0.0217 | 0.0261 | – | – | – |
| AAAAAACAUGAGGAUCACCCAUGUCAGGAUAUCCGAAAAGAAAAAUAAAAAGAAAAAGGGAGAAGGGACAAAAA [April's ex-date #3] (puzzle: Exclusion 1) | – | – | – | 0.0486 | 0.0456 | 0.0613 |
| GCGCCAUCGUGAGAUGGCGUAACUACAUGAGGAUCACCCAUGUAGGAUAUCGAUUGCUUUGCAGUCGAGAAGGGCAAGGGAUUU [JL ENG3 3.88] (Eterna round: R96, puzzle: Exclusion NG 3) | 0.0258 | 0.0147 | 0.0204 | – | – | – |
| GACGCUGACCGAGGAUAUACAAUAAAACAACAAACUCCUCGUGUCAGAACAUGAGGAUCACCCAUGUAGAAGGCGGCAGGUCUA [Rilebibidi] (Eterna round: R96, puzzle: Exclusion NG 2) | 0.0785 | 0.0444 | 0.0581 | – | – | – |
| CCCUCGGGAGGAUAUGGGUGUUUUUACAUGAGGAUCACCCAUGUAGAGUAAUAUGUGGGUCCAGAAGGCCCAAGGG [-26, -24.7 kcal, 25% A] (Eterna round: R97, puzzle: Exclusion 5) | 0.0869 | – | 0.21 | – | – | – |
| CUAGAUCUUCGGAUCUAGUACAUGAGGAUCACCCAUGUUACGAGCAGAUCUUCAUACAAGCUUUUUGCUCGUCUUAU [Sensor v3 - Turn-off variant 1 - 33] (puzzle: Sensor v3, turn-off variant 1) | – | – | – | 0.0195 | 0.0334 | 0.0307 |
| CUAGCGAAUGUAGGAUAUCGGACUGUUUCAGUCUGAGAAGGACAUGAGGAUCACCCAUGUGAAGCUACGUGAGUAGCACGCUAG [JL ENG1 3.86] (Eterna round: R96, puzzle: Exclusion NG 1) | 0.111 | 0.0187 | 0.0232 | – | – | – |

Source: the supplement of paper PMC9170038
